experiment: yeast display, Sf9 membrane polyspecificity reagent, FACS + sequencing; frameworks hold sequencing errors
Method in brief: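 A synthetic nanobody library was expressed on Saccharomyces cerevisiae BJ5465 by galactose induction for 36–48 hours. The library was stained for 1 hour at 4 °C with 10% biotinylated, detergent-solubilized Sf9 membrane reagent and enriched with streptavidin microbeads before FACS. Low and high (top ~1%) gates were set on anti-HA fluorescence for expression and streptavidin fluorescence for reagent binding, and each polyreactivity label reflects the gate of origin.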

Sequence | polyreactivity (PSR sort gate)
QVQLVESGGGLVQAGGSLRLSCAASGFTFRRYAMGWYRQAPGKETELVAVITTAGSTNYADSVKGRFTISRDNAKNTVHLQMNSLIPEDTAVYYCATDNGTRKRRYDYWGQGTQVTVSS | low polyreactivity
QVQLVESGGGLVQAGGSLRLSCAASGFTFRRYDMGWYRQAPGKERELVAAITASGGNTYYADSVKGRFTISRDNAKNTVYLQMNSLKPEDTAVYYCAARQYRYKYDYWGQGTQVTVSS | high polyreactivity
QVQLVESGGGLVQAGGSLRLSCAASGFTFRSNAMGWYRQAPGKERELVAAISYSGDSTYYADSVKGRFTISRDNAKNTVYLQMNSLKPEDTAVYYCNAVGSGYRSWYDYWGQGTQVTVSS | high polyreactivity
QVQLVESGGGLVQAGGSLRLSCAASGFTFRSNAMGWYRQAPGKERELVAAITRGGGSTYYADSVKGRFTISRDNEKNTVYLQMNSLKPEDTAVYYCAAGGFRTSRRDYWGQGTQVTVSS | high polyreactivity
QVQLVESGGGLVQAGGSLRLSCAASGFTFRSYAMGWYRQAPGKEREFVAAINGRSGSTYADSVKGRFTISRDNAKNTVYLQMTSLKPEDTAVYYCAARVRRGSTQAQYYYWGQGTQVTVSS | high polyreactivity
QVQLVESGGGLVQAGGSLRLSCAASGFTFRSYTMGWYRQAPGKERELVARITRSCGNTYYADSVKGRFTISRDNAKNTVYVQMNSLKPEDTEGYYCASVYWGKYSAGNLLEYDYWGQGTQVTVSS | high polyreactivity
QVQLVESGGGLVQAGGSLRLSCAASGFTFRSYVMGWYRQAPGKERELVASISSGGITKYADSVKGRFTISRDNAKNTVYLQMNSLKPEDTAVYYCNARTYSNTVLNYGLQYGYDYWGQGTQVTVSS | high polyreactivity
QVQLVESGGGLVQAGGSLRLSCAASGFTFRTYAKGWYRQAPAKERELVADISGSGGSTYYADSVKGRFTISRDNAKNTVYLQMNSLKPEDTAVYYCAADYASWSNWGYEYWGQGTQVTVSS | high polyreactivity
QVQLVESGGGLVQAGGSLRLSCAASGFTFRTYAMGRYRQAPGTERELVAAINVSGGTYYADSVKGRFTISRDNAKNTVYLQMNSLKPEDSAVYYCTANRFRTGFDYWGQGTQVTVSS | low polyreactivity
QVQLVESGGGLVQAGGSLRLSCAASGFTFRTYAMGWYRQAPGKERELVAAITGSGGSTYYADSVKGRFTISRDNAKNTVYLQMNSLKPEDTAVYYCNAVERSAFRGVRFDYDYWGQGTQVTVSS | high polyreactivity
QVQLVESGGGLVQAGGSLRLSCAASGFTFRTYAMGWYRQAPGKEREYVAAINGRSGSTYADSVKGRFTISRDNAKNTVYLQMISLKPEDTAVYYCAARVRRGSTQAQFYYWGQGTQVTVSS | high polyreactivity
QVQLVESGGGLVQAGGSLRLSCAASGFTFRVYAMGWYRPAPGKERELVAAISVRGDSTYYADSVKGRFTISRDNAKNTVYLQMNSLKPEDTAVYYCNAALLGKQYYSNPNYDYWGQGTQVTVSS | high polyreactivity
QVQLVESGGGLVQAGGSLRLSCAASGFTFRVYAMGWYRQAPGKERELVAAITNSGGNTYYADSVKGRFTISRDNAKNTVYLQMNSLKPEDTAVYYCNRRYRYRFGYWGQGTQVTVSS | high polyreactivity
QVQLVESGGGLVQAGGSLRLSCAASGFTFRVYAMGWYRQAPGKERELVAAITRGGSTKYADSVKGRFTISRDNAKNTVYLQMNSLKPEDTAVYYCAARYNGKLNWGQGTQVSVSS | high polyreactivity
QVQLVESGGGLVQAGGSLRLSCAASGFTFRWYAMGWYRQAPGKERELVAAITSSGGSTYYADSVKGRFTISRDNAKNTVYLQMNSLKPEDTAVYYCNKRFLDLSYHDYDYWGQGTQVTVSS | high polyreactivity
QVQLVESGGGLVQAGGSLRLSCAASGFTFRWYAMGWYRQAPGKERELVARIRGSGGNTYYADSVKGRFTISRDNAKNTVYLQMNSLKPEDTAVYYCAAMQSPTRSFIYRFDYWGQGTQVTVSS | high polyreactivity
QVQLVESGGGLVQAGGSLRLSCAASGFTFRYNAMGWYRQAPGKERELVAAISRSGGRTYYADSVKGRFTIARDNAKNTVYLQMNSLKPEDTAVYYCAAVAARITGFGYWGQGTQVTVSS | high polyreactivity
QVQLVESGGGLVQAGGSLRLSCAASGFTFRYNAMGWYRQAPGKERELVAAITWRGGRTYYADSVKGRFTISRDNAKNTVYLQMNSLKPEDTAVYYCAVYRTSTRYVVDSDYWGQGTQVTVSS | low polyreactivity
QVQLVESGGGLVQAGGSLRLSCAASGFTFRYNAMGWYRQAPGKKGSWVAAISRTGGSTYYADSVKGRFTISRDNAKNTVYLQMNSLKPEDTAVYYCATYSSRQRKSSYYYWGQGTQVTVSS | high polyreactivity
QVQLVESGGGLVQAGGSLRLSCAASGFTFRYYAMGWYRKAPGKERELVAAITRRGGSKYYADSVKGRFTISRDNAKNTVYLQMNSLKPEDTAVYDCAASLWTTSADYDYWGQGTQVTVSS | high polyreactivity

Sequence | polyreactivity (PSR sort gate)
QVQLVESGGGLVQAGGSLRLSCAASGFTFRYYAMGWYRQAPGKERELVAAISSGGNTRYADSVKGRFTISRDNAKNTVYLQMNSLKPEDTAVYYCARRPGAWKYVYTGDYWGQGTQVTVSS | high polyreactivity
QVQLVESGGGLVQAGGSLRLSCAASGFTFRYYAMGWYRQAPGKERELVAAISWRGGRTYYADSVKGRFTISRDNAKNTVYIQMNSLKPEDTAVYYCAALRERQTRGNYWGQGTQVTVSS | high polyreactivity
QVQLVESGGGLVQAGGSLRLSCAASGFTFRYYAMGWYRQAPGKERELVAAITRNGGSTYYADSVKGRFTISRDNAKHTVYLQMNSLKPEETAVYYCNRYGRQYDFYYWGQGTQVTVSS | high polyreactivity
QVQLVESGGGLVQAGGSLRLSCAASGFTFRYYTMGWYRQAPGKERELVARITTGGSTKYADSVKGRFTISRDNAKNTVYLQMNSLKPEDTAVYYCAARQYKWWFSQDGYDYWGQGTQVTVSS | high polyreactivity
QVQLVESGGGLVQAGGSLRLSCAASGFTFRYYVMGWYRQAPGTERELVAAISWTGGSTYYADSVKGRFTISRDNAKNTVYLQMTSLKPEDTAVYYCNAASLSKSDYWGQGTQVTVSS | high polyreactivity
QVQLVESGGGLVQAGGSLRLSCAASGFTFSAYAMGWYRQAPGKERELVAAISWSGSRTYYADSVKGRFTISRDNAKNTVYLQMNSLKPEDTAVYYCAKEPYDTFGFYEYDYWGQGTQVTVSS | low polyreactivity
QVQLVESGGGLVQAGGSLRLSCAASGFTFSDNAMGWYRQAPGKEREFVATIDWSGGSTYYADSVKGRFTISRDNAKNTVYLQMNSLKPDDTAVYYCAATFRYSTSQYLQGYDYWGQGTQVTVSS | low polyreactivity
QVQLVESGGGLVQAGGSLRLSCAASGFTFSDYAMGSNRQAPGKERELVAAITSRTGTTYYADSVKWRFTISRDNAKNTVYLQMNSLKPEDTAVYYCNKVKFRSQDMDYWGQGTQVTVSS | high polyreactivity
QVQLVESGGGLVQAGGSLRLSCAASGFTFSFYTMGGYRQAPGTARELVAAISRNGGSTYYADSVKGRFTISRDNAKTTDYFQMNSLKPEDTAVYYCAARARGGDWGSGDYWGQGTQVTVSS | high polyreactivity
QVQLVESGGGLVQAGGSLRLSCAASGFTFSGNTMGWSRQAPGKERELVATISRTGGITYYADSVKGRFTISRDNAKNTVYLQMNSLKPEDTAVYYCNRRYYYFVYPDDYWGQGTQVTVSS | high polyreactivity
QVQLVESGGGLVQAGGSLRLSCAASGFTFSGYSMGWYRPAPGKERELVAAITKSGGSTYYADSVKGRFTISRDTAKNTVYLQMNSLKPEDTAVYYCNADVLYTTEGDYWGQGTQVTVSS | high polyreactivity
QVQLVESGGGLVQAGGSLRLSCAASGFTFSHYAMGWYRQAPGKERELVAAISWGGGSTYYADSVKGRFTISRDNAKNTVYLQMKSLIPEDTAVYYCARDVVYRGYYYGAFDYCGQGTQVTVSS | low polyreactivity
QVQLVESGGGLVQAGGSLRLSCAASGFTFSKYAMGWYRQAPGKERELVAAITSGDDTNYADSVKGRFTISRDNAKNTVYLQMNSLKPEDTAVYYCNAEYTVYYSYWAIGVDYWGQGTQVTVSS | high polyreactivity
QVQLVESGGGLVQAGGSLRLSCAASGFTFSKYVKGLYRQAPGKERELVAAISKRGGSTYYADSVKGRFTISRDYAKNTVYLQMNSLKPEDTAVYYCAARYYLEQILEKDYWVQGTQVTVSS | high polyreactivity
QVQLVESGGGLVQAGGSLRLSCAASGFTFSLNTMGWYRQAPGKEREFVAAITYRTGRTYYADSVKGRFTISRDNAKNTVYLQMNSLKPDDTAVYYCNAGEHTRWYYWTPTYTTVDYWGLGTQVTVSS | low polyreactivity
QVQLVESGGGLVQAGGSLRLSCAASGFTFSLYAMGWYRQAPGKERELVAAISRSGGSTYYADSVKGRFTISRDNAKKTVYLQMNSLKPEDTAVYYCNAPYSVSSIRYDYWGQGTQVTVSS | high polyreactivity
QVQLVESGGGLVQAGGSLRLSCAASGFTFSNYAMGWYRQAPGKEREFVAAISGTGGSTYYADSVKGRFTISRDNAKNTVYLQMNSLKPEDTAVYYCARRRTYPPGRYYYWGQGTQVTVSS | high polyreactivity
QVQLVESGGGLVQAGGSLRLSCAASGFTFSPNAMGWYRQAPGKERELVAAIDWNGGSTYYADSVKGRFTISRDNAKNTVYLQMNSLKPEDTAVYYCNADWVYWQYLTSFVTFDYWGQGTQVTVSS | low polyreactivity
QVQLVESGGGLVQAGGSLRLSCAASGFTFSPYAMGWYRQAPGKERELVAAISSSGGSTYYADSVKGRFTISRDNAKNTVYLQMNSLKPEDTAVYYCATQGTRRPGKFYYWGQGTQVTVSS | high polyreactivity
QVQLVESGGGLVQAGGSLRLSCAASGFTFSPYTMGWYRQAPGKEWELVATIRYDGTSTYYADSVKGRFTISRDNAKNTVFLQMNSLKPEDTEVYYCAADIWRVYSTIYYWGQGTQVTVSS | low polyreactivity

— the nanobody polyreactivity screen of Harvey et al. (2022)
